Assay results published in IntAct's records for PubMed 12134079.

B1: "Bis(monoacylglycero)phosphate synthase CLN5" (Homo sapiens), O75503 (parent)
chain: MAQEVDTAQGAEMRRGAGAARGRASWCWALALLWLAVVPGWSRVSGIPSRRHWPVPYKRFDFRPKPDPYCQAKYTFCPTGSPIPVMEGDDDIEVFRLQAPVWEFKYGDLLGHLKIMHDAIGFRSTLTGKNYTMEWYELFQLGNCTFPHLRPEMDAPFWCNQGAACFFEGIDDVHWKENGTLVQVATISGNMFNQMAKWVKQDNETGIYYETWNVKASPEKGAETWFDSYDCSKFVLRTFNKLAEFGAEFKNIETNYTRIFLYSGEPTYLGNETSVFGPTGNKTLGLAIKRFYYPFKPHLPTKEFLLSLLQIFDAVIVHKQFYLFYNFEYWFLPMKFPFIKITYEEIPLPIRNKTLSGL
partner: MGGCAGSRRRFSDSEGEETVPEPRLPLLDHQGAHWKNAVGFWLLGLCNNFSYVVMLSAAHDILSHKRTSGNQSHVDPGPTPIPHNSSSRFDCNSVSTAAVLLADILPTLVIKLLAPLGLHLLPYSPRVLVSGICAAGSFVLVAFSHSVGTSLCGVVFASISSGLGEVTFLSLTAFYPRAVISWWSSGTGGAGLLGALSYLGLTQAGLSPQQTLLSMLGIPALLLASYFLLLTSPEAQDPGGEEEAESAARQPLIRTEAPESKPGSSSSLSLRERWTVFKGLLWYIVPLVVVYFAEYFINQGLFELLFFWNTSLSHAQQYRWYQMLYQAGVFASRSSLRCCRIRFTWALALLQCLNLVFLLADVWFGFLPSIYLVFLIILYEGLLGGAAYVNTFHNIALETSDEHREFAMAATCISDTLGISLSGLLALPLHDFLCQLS

Variants of: B1
Conditions: with cln3_human CLN3, Q13286

Row | effect of a mutation on the interaction | Variant
1 | with no effect | D230N
